For this test, the target named is VirB4-like TraB ATPase of the pKM101-encoded type IV secretion system (plasmid pKM101 (carried in E. coli)). Briefly: cryo-EM structure.

The values below come from publication doi:10.1101/2021.06.01.446691.

“VirB4-like TraB ATPase of the pKM101-encoded type IV secretion system (enzyme)” had a stoichiometry N of 12.
